# Data as given in patent US20190049430.
# B1: Metalloendopeptidase OMA1 (OMA1), endogenous enzyme in normal rat kidney (NRK-52E) cell lysate (protein)
# chain: AAPVPLLMLILKPVQKLLAIIVGRGIRKWWQALPPDKKALFKDSVKRNKWRLLLGLSAFGLLFVVFYFTHLEVSPVTGRSKLLLVGKEHFRLLSDLEYEVWMEEFKNDLLPEEDPRYLTVKKVVYHLTQCNQDVPGVSEINWVVHVVHSPKVNAFVLPNGQVFVFTGLLNSVTDMHQLSFLLGHEIAHAVLGHAAEKASLVHLLDFLGMIFLTMIWAICPRDSLAVLGQWIQSKLQEYMFDRPYSRTLEAEADKIGLQLAAKACVDVRASSVFWQQMEFSESLHGYPKLPEWLSTHPSHGNRAEYLDRLIPQALKLREVCNCPPLSGPDPRLLFRLTVKHLLEDSEKEDLNITVKKQKPDALPIQKQEQIPLTYALGKRTAG
# How the values were obtained:
# [1] = molecular target: T1, FRET peptide MCA-ATDHGSES-Lys DNP (no RA motif)
# T1 chain: ATDHGSES
# [2] = molecular target: T2, OPA1 FRET substrate MCA-AFRATDHG-DNP
# T2 chain: AFRATDHG
protein,measurement,setting,value
B1,OMA1 Activity (average slope over 30 min compared to AFRATDHG substrate),[1],2.71%
same,OMA1 Activity (average slope over 30 min compared to AFRATDHG substrate),[2],100%
